B1: Microtubule-associated tumor suppressor candidate 2 (Homo sapiens), Q5JR59-3 (parent)
chain: MGHCCCKPYNCLQCLDKTNESALVKEKELSIELANIRDEVAFHTAKCEKLQKEKEELERRFEDEVKRLGWQQQAELQELEERLQLQFEAEMARLQEEHGDQLLSIRCQHQEQVEDLTASHDAALLEMENNHTVAITILQDDHDHKVQELMSTHELEKKELEENFEKLRLSLQDQVDTLTFQSQSLRDRARRFEEALRKNTEEQLEIALAPYQHLEEDMKSLKQVLEMKNQQIHEQEKKILELEKLAEKNIILEEKIQVLQQQNEDLKARIDQNTVVTRQLSEENANLQEYVEKETQEKKRLSRTNEELLWKLQTGDPTSPIKLSPTSPVYRGSSSGPSSPARVSTTPR
partner: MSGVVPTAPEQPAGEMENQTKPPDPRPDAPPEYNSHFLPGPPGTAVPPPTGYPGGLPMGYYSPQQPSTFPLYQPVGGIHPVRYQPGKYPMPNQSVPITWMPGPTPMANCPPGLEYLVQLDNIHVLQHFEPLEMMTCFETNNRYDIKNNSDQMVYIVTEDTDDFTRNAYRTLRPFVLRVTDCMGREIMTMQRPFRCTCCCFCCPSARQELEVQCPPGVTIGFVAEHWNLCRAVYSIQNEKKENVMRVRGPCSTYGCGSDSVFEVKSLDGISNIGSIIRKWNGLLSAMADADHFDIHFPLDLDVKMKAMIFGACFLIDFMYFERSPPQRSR
B2: Signal transducing adapter molecule 1 (Homo sapiens), Q92783 (parent)
chain: MPLFATNPFDQDVEKATSEMNTAEDWGLILDICDKVGQSRTGPKDCLRSIMRRVNHKDPHVAMQALTLLGACVSNCGKIFHLEVCSRDFASEVSNVLNKGHPKVCEKLKALMVEWTDEFKNDPQLSLISAMIKNLKEQGVTFPAIGSQAAEQAKASPALVAKDPGTVANKKEEEDLAKAIELSLKEQRQQSTTLSTLYPSTSSLLTNHQHEGRKVRAIYDFEAAEDNELTFKAGEIITVLDDSDPNWWKGETHQGIGLFPSNFVTADLTAEPEMIKTEKKTVQFSDDVQVETIEPEPEPAFIDEDKMDQLLQMLQSTDPSDDQPDLPELLHLEAMCHQMGPLIDEKLEDIDRKHSELSELNVKVMEALSLYTKLMNEDPMYSMYAKLQNQPYYMQSSGVSGSQVYAGPPPSGAYLVAGNAQMSHLQSYSLPPEQLSSLSQAVVPPSANPALPSQQTQAAYPNTMVSSVQGNTYPSQAPVYSPPPAATAAAATADVTLYQNAGPNMPQVPNYNLTSSTLPQPGGSQQPPQPQQPYSQKALL
B3: Outer dense fiber protein 1 (Homo sapiens), Q14990 (parent)
chain: MAALSCLLDSVRRDIKKVDRELRQLRCIDEFSTRCLCDLYMHPYCCCDLHPYPYCLCYSKRSRSCGLCDLYPCCLCDYKLYCLRPSLRSLERKAIRAIEDEKRELAKLRRTTNRILASSCCSSNILGSVNVCGFEPDQVKVRVKDGKVCVSAERENRYDCLGSKKYSYMNICKEFSLPPCVDEKDVTYSYGLGSCVKIESPCYPCTSPCSPCSPCSPCNPCSPCNPCSPYDPCNPCYPCGSRFSCRKMIL
B4: Cytochrome b-245 chaperone 1 (Homo sapiens), Q9BQA9 (parent)
chain: MYLQVETRTSSRLHLKRAPGIRSWSLLVGILSIGLAAAYYSGDSLGWKLFYVTGCLFVAVQNLEDWEEAIFDKSTGKVVLKTFSLYKKLLTLFRAGHDQVVVLLHDVRDVSVEEEKVRYFGKGYMVVLRLATGFSHPLTQSAVMGHRSDVEAIAKLITSFLELHCLESPTELSQSSDSEAGDPASQS
B5: Protein BANP (Homo sapiens), Q8N9N5 (parent)
chain: MMSEHDLADVVQIAVEDLSPDHPVVLENHVVTDEDEPALKRQRLEINCQDPSIKTICLRLDSIEAKLQALEATCKSLEEKLDLVTNKQHSPIQVPMVAGSPLGATQTCNKVRCVVPQTTVILNNDRQNAIVAKMEDPLSNRAPDSLENVISNAVPGRRQNTIVVKVPGQEDSHHEDGESGSEASDSVSSCGQAGSQSIGSNVTLITLNSEEDYPNGTWLGDENNPEMRVRCAIIPSDMLHISTNCRTAEKMALTLLDYLFHREVQAVSNLSGQGKHGKKQLDPLTIYGIRCHLFYKFGITESDWYRIKQSIDSKCRTAWRRKQRGQSLAVKSFSRRTPNSSSYCPSEPMMSTPPPASELPQPQPQPQALHYALANAQQVQIHQIGEDGQVQVGHLHIAQVPQGEQVQITQDSEGNLQIHHVGQDGQLLEATRIPCLLAPSVFKASSGQVLQGAQLIAVASSDPAAAGVDGSPLQGSDIQVQYVQLAPVSDHTAGAQTAEALQPTLQPEMQLEHGAIQIQ
partner: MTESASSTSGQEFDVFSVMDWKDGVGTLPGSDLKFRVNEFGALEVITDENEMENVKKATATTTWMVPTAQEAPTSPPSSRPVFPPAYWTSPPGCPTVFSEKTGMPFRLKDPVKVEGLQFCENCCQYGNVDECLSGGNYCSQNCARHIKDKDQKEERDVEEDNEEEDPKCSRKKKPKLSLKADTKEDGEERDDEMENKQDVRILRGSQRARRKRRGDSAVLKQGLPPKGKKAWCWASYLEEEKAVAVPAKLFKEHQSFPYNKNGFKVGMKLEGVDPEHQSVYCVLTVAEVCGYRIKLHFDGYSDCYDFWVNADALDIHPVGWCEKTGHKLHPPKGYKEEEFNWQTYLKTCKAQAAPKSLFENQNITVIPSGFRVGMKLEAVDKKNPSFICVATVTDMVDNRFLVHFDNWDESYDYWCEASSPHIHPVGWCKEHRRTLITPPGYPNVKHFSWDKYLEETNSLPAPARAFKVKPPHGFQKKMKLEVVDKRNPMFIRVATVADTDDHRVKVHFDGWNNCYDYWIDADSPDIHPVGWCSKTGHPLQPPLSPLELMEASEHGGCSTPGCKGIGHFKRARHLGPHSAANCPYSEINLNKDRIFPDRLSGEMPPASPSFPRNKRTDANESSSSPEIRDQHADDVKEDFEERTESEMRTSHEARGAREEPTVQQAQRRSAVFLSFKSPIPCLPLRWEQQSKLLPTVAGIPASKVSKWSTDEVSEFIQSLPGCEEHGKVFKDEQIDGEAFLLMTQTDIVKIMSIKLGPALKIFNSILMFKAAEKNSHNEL
B6: PDCD10 and GCKIII kinases-associated protein 1 (Homo sapiens), Q8IY42 (parent)
chain: MGCRCCKIIQSYLFDPVQVPSPGYVNEVNSCKLDEDDTDKLKGKWSSEVLVQKNDPQRQGSKKTESSSRTADPWEPCWPHQGPLPQGDAGGEHHACGVNGIGPAATPQPTGNSSPTQDDRGSWASTANTVPPTQPFLEGGGTRKQDCVLLASEGTQVMRNGDSRAPSEAESFALEVQDHVFQIPAPDYLQHWGPAGDNVDHNEKDCVFKNHTEDESLEGIQPPVGEHGLNTPFSVRRSWDSLNEDVETEVLSICFNEKGPVHAMPVVDSGNRQEDTHGSDGDGDGEIVDEDAAVAEALAALEAATAGEDLDETD
B7: U3 small nucleolar RNA-associated protein 14 homolog C (Homo sapiens), Q5TAP6 (parent)
chain: MNVNQVAENLALSHQEELVDLPKNYPLSENEDEGDSDGERKHQKLLEAIISLDGKNRRKLAERSEASLKVSEFSVSSEGSGEKLGLADLLEPVKTSSSLATVKKQLNRVKSKKVVELPLNKEKIEQIHREVAFSKTSQVLSKWDPIILKNQQAEQLVFPLGKEQPAIAPIEHALSGWKARTPLEQEIFNLLHKNKQPVTDPLLTPMEKASLQAMSLEEAKMHRAELQRARALQSYYEAKARKEKKIKSKKYHKVVKKGKAKKALKEFEQLQKVNPTVALEEMEKIENARMMERMSLKHQNSGKWAKSKAIMAKYDLEARQAMQEQLAKNKELTQKLQVASESEEEEGGTEVEELLVPHVANEVQMNVDGPNPWMFRSCTSDTKEAATQEDPEQVPELAAHEVSASEAEERPVAEEEILLREFEERQSLRKRSELNQDAEPASSQETKDSSSQEVLSELRALSQKLKEKHQSRKQKASSEGTVPQVQREEPAPEEAEPLLLQRSERVQTLEELEELGKEDCFQNKELPRPVLEGQQSERTPNNRPDAPKEKKEKEQLINLQNFLTTQSPSVRSLAVPTIIEELEDEEERDQRQMIKEAFAGDDVIRDFLKEKREAVEASKPKDVDLTLPGWGEWGGVGLKPSAKKRRQFLIKAPEGPPRKDKNLPNVIISEKRNIHAAAHQVQVLPYPFTHHRQFERTIQTPIGSTWNTQRAFQKLTTPKVVTKPGHIIKPIKAEDVGYQSSSRSDLPVIQRNPKRITTRHNKEEKL
partner: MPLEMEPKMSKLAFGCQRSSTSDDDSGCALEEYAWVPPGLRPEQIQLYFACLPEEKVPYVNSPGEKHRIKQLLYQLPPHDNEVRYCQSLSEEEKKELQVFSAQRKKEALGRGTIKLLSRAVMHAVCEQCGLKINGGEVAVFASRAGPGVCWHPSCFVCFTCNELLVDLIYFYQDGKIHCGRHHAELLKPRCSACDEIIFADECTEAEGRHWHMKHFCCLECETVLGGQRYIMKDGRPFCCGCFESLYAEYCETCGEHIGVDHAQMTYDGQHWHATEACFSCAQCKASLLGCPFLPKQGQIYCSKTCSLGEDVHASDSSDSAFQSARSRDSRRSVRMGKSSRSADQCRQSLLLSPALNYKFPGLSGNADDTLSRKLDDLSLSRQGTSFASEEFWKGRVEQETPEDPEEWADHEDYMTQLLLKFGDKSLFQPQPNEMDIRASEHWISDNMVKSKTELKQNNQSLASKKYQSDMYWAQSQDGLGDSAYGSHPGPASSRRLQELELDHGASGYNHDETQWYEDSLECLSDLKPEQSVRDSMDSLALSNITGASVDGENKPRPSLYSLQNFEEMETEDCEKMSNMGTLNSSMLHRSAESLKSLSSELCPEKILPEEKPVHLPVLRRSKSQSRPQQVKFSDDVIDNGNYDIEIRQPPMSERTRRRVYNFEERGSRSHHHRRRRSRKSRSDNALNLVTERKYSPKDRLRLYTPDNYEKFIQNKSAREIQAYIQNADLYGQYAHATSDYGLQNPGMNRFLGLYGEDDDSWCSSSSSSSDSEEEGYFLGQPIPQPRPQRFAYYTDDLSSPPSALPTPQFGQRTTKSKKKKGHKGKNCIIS

Variants of: B1
Details: with pls4_human PLSCR4, Q9NRQ2

effect of a mutation on the interaction | Variant
with no effect | A89V

Variants of: B2
Details: with hgs_human HGS

effect of a mutation on the interaction | Variant
with no effect | V61I
with no effect | A367T
with no effect | I350T
with no effect | I343T

Variants of: B3
Details: with mtus2_human MTUS2, Q5JR59
mtus2_human MTUS2, Q5JR59, sequence (Q5JR59 whole entry): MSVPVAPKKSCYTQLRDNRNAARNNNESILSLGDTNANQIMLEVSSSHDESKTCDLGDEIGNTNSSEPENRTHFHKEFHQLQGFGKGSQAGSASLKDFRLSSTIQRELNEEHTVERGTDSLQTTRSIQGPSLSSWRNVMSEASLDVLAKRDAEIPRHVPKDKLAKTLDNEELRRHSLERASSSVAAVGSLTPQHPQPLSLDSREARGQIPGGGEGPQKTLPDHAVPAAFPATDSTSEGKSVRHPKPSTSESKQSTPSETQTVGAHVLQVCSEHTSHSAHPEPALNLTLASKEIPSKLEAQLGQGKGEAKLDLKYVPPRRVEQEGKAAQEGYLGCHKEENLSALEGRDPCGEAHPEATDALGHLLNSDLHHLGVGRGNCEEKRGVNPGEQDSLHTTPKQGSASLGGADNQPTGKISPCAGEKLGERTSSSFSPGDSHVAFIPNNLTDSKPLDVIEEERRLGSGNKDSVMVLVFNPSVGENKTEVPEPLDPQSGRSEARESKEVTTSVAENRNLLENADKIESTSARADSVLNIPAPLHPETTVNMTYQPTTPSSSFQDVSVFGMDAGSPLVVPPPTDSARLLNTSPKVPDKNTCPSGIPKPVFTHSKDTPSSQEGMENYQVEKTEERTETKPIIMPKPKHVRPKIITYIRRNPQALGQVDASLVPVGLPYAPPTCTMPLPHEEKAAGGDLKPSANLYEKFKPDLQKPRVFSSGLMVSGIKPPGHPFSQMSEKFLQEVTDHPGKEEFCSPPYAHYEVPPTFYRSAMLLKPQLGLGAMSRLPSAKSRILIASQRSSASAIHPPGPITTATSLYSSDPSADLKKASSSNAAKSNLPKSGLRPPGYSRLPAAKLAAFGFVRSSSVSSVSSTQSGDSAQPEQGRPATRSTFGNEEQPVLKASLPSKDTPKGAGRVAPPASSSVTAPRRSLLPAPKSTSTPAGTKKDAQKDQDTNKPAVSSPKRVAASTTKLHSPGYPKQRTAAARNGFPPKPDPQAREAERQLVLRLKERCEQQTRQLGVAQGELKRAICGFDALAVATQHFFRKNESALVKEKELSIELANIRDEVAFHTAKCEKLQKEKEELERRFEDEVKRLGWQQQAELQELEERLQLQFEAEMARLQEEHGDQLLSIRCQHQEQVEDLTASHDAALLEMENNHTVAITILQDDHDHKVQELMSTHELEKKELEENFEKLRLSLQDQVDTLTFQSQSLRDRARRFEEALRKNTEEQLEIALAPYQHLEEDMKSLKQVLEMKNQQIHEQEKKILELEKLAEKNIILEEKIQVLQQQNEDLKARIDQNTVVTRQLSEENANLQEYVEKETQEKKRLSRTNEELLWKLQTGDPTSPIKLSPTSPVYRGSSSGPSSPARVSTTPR

effect of a mutation on the interaction | Variant
with no effect | S89I

Variants of: B4
Details: with BCL2L13, Q9BXK5
BCL2L13, Q9BXK5, sequence (Q9BXK5 whole entry): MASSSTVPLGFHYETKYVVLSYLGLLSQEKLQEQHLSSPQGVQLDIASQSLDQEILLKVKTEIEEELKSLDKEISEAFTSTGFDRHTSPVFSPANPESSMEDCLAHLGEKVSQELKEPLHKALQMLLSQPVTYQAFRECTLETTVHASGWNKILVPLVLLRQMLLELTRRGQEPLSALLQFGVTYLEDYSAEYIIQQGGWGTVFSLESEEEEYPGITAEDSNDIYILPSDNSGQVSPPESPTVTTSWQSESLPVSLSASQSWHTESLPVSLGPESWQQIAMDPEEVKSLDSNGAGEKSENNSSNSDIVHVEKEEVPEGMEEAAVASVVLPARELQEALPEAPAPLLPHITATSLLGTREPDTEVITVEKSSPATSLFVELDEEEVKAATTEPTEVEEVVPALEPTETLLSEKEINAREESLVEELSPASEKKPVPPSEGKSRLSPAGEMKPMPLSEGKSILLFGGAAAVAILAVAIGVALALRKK

effect of a mutation on the interaction | Variant
with no effect | R129W

Variants of: B5
Details: with lmbl3_human L3MBTL3, Q96JM7

effect of a mutation on the interaction | Variant
with no effect | P348S

Variants of: B6
Details: with pdc10_human PDCD10, Q9BUL8
pdc10_human PDCD10, Q9BUL8, sequence (Q9BUL8 whole entry): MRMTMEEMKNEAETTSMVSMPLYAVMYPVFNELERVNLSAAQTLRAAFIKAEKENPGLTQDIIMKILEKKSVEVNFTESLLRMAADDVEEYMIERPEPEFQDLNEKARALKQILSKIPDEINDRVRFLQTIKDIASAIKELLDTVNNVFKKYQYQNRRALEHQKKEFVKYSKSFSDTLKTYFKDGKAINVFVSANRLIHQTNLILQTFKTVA

effect of a mutation on the interaction | Variant
with no effect | A151T

Variants of: B6
Details: with eif3e_human EIF3E

effect of a mutation on the interaction | Variant
with no effect | A151T

Variants of: B7
Details: with pric1_human PRICKLE1, Q96MT3

effect of a mutation on the interaction | Variant
with no effect | V109D

Source: IntAct's records for PubMed 31515488
